In a protein production outcome set (Wang et al. 2014):

Assay: label from the status in PepcDB records
For “MKASCSSFTCQSADGKHFLGRTYDEYGDISANKVSIIPRGYEISLTFMGNKENNKQIVKYAIVGMNVDMFDTPFLTEGMNEHGLMISLLFFPHFTQYNSKSNAEYDVNLGLLLPFVLGKCKNIEEAVALLQKINPVDEPESQMELPCHYLISDKTGESIVVEPLADGLKIYRNEMGVLTNSPTYEWHKINLRNYLGISNLAKETQVVNGYKIEELGEGTGYLGIPGDYTPVSRFVRLAFSKNYMPEPQNEIDAVNKMFNIFETVDVPEGVIYTPPLRTPYHEKTLCTSVMCSESLKYYFSTSTNCRICCVDLNKAMNNNSKELINIDIPFEQDILTLN”, the protein production was “failed”.
In the case of “MKASELRNYTDEELKNLLEEKKRQLMELRFQLAMGQLKNTSLIKLTKRDIARIKTILRERELGIRR”, the protein production is reported as “not failed”.
With “MKATTSLATSCRRLLLWGVLTLQCLFSTAQKRFTADVEQQAEKILSQMTLDEKLSYIGGINWMYTRPLERFGIPRLKMSDGPQGLGTHGPSTAYPCALMLAATWNEQLATEYGSALGKDCRARGVHVLLGPAVNIYRAPMCGRNFEYMGEDPYLTSRMATGYIKGVQGQGVMATIKHFIANNSDYDRDHISSDIDERTLNEIYFPSFRAAVQEAEVGAVMSSYNLLNGIYTTEHPWLLKDVLRQQWGFKGILMSDWGSTHHCIPAVKGGLDLEMPAGSKMQPEELKYYLRTGDITIETIDEKVRHILQTLLAFGFRETQQPDTHIPLKNPQCAQTALNVASEGLVLLKNTNQILPIRSGKVKTIAVVGKNAQGYVCGGGSGEVHPFQYVSVLDGIRKEAAERDIRVEYLDVYDYLPTIIFTDTERKQKGFRAQYFDNMNLEGTPKVEQTETKINYSWSGGTGLKEMPKEQFSVRWNGTICPQETDEYLFTLGGDDGYRLYIDGKLIADEWHEGAFRNSTYRCMLEAGKKYDLKIEYFQKGGGAAVNFIWKQKNASNNLFVEALNRNDLVVACIGFNSDTEGEGRDRTFELPEDEAQLLQNTLQSKRPVVGIVNAGGNVEMQSWEPSLKGLLWAWYGGQEAGTAIARTLFGELNPSGKLPITFEKRWEDNPTFHSYYDPDGDKHVEYAEGIFVGYRGYDKLKREVQYPFGYGLSYTRFKLSAPTVGTPKTDGSVTVTCKLTNTGRTAGAEVVQLYVSNKDTTVEHPEKELKGFRKVYLEPGETKSIEITVPAEAFSHYDTGSRRFVIDRGSHDILLGFSSRDIKAKMSVGISR” the protein production was “failed”.
In the case of “MKAVIMAGGFGTRIQPLTSSIPKPMIPLLNRPIMLHIVELLKKYEITDLVMLLYHQPAVIKNFFRDGTDFGVKITYVTPLQDMGTAGAVKCAEKFLDERFLVISGDLLTDFNLQKIIDSHEDNKALATITLTSVKDPLQFGVVITDKEKRITQFLEKPGWGEVISDTINTGIYVFEPEIFAHIPEEENYDFSQDLFPKLLEQQKPLFGYTAKGYWRDIGNTDSYREAHHDIFKGKVNVKIDEAKQDLVGKDLRLGSDVNLDEHVTLEGTVVVGDNSQVFESAHIKDTVIGRNCTIEPGVRLNRCVIWDNVYVKKGAKLNDGVLCSNVRVGHGVVMEEGVIVADDTSIGEEAYIKRDVKIWPRKVIEAGATVTGNLIWGEKWKKSLFEGAMVKGLTNMELTPEFVAKLGCAYGTMLPKGSHIISGRDSYRSCRMLKRSFIGGLLSAGINVRDLTMVPMPVLRYKLRTFGEVGGIYFRQAIDDPASTEIVFLDGDGLDFSSSMGKNVERIFFKENFRRAHHTEPGALSEIPQQVTDFYREGFLHTIGKSPLQKKQFKVVIDFNHSSASQLLPGILTQMGCEVISLNAYVDEERGIQAVAERQQSLAQLSKIVATLEASAGFWLDPGTEGVIVVDETGKVYEGAELLPLMVGLALRSGEKGLFAVPVSAPSAIERMVQERGSAVTRTKSADRAMIEATLSSEVVLAGTMDGRFAFPKFQSAFDGMFAIAKTIELVAKGGLSISRVAAEIPQRVFLQTRVPCVWDMKGGIMRKMSEDSLDKEASFIDGIKVHFGEDWALVLPDQYLPYVHIVAEARDAKTAQKLLDEYKKKVEGWKRELQ”, the protein production is reported as “failed”.
In the case of “MKAVKSERERGSRRRHRDGDVVLPAGVVVKQERLSPEVAPPAHRRPDHSGGSPSPPTSEPARSGHRGNRARGVSRSPPKKKNKASGRRSKSPRSKRNRSPHHSTVKVKQEREDHPRRGREDRQHREPSEQEHRRARNSDRDRHRGHSHQRRTSNERPGSGQGQGRDRDTQNLQAQEEEREFYNARRREHRQRNDVGGGGSESQELVPRPGGNNKEKEVPAKEKPSFELSGALLEDTNTFRGVVIKYSEPPEARIPKKRWRLYPFKNDEVLPVMYIHRQSAYLLGRHRRIADIPIDHPSCSKQHAVFQYRLVEYTRADGTVGRRVKPYIIDLGSGNGTFLNNKRIEPQRYYELKEKDVLKFGFSSREYVLLHESSDTSEIDRKDDEDEEEEEEVSDS”, the protein production is reported as “failed”.
In the case of “MKAWVLKRLGGPLELVDLPEPEAEEGEVVLRVEAVGLNFADHLMRLGAYLTRLHPPFIPGMEVVGVVEGRRYAALVPQGGLAERVAVPKGALLPLPEGLSPEEAAAFPVSFLTAYLALKRAQARPGEKVLVQAAAGALGTAAVQVARAMGLRVLAAASRPEKLALPLALGAEEAATYAEVPERAKAWGGLDLVLEVRGKEVEESLGLLAHGGRLVYIGAAEGEVAPIPPLRLMRRNLAVLGFWLTPLLREGALVEEALGFLLPRLGRELRPVVGPVFPFAEAEAAFRALLDRGHTGKVVVRL”, the protein production is reported as “not failed”.
With “MKCHRVNELIELLHPAWQKEPDLNLVQFLQNLAQEAGFEGQLNELTDDILIYHLKMRDSDKEQVIPGLKKDYEEDFKTALLRARGVIKDLEHHHHHH” the protein production was “not failed”.
With “MKCKRLNEVIELLQPAWQKEPDFNLLQFLQKLAKESGFDGELADLTDDILIYHLKMRDSAKDAVIPGLQKDYEEDFKTALLRARGVIKELEHHHHHH” the protein production was “not failed”.
For “MKCNDKLAPFEVFDHVVNKKLSFRHVTMDDVDMLHSWMHEEHVIPYWKLNIPLVDYKKHLQTFLNDDHQTLMVGAINGVPMSYWESYWVKEDIIANYYPFEEHDQGIHLLIGPQEYLGQGLIYPLLLAIMQQKFQEPDTNTIVAEPDRRNKKMIHVFKKCGFQPVKEVELPDKIGLLMKCEQNVFEKRWSDWKMNKF”, the protein production was “not failed”.
In the case of “MKDVTIYHNPRCSKSRETLALVEQQGITPQVVLYLETPPSVDKLKELLQQLGFSDARQLMRTKEDLYKTLNLDDRGLTQDQLLQAMADNPKLIERPIVVTQGKARIGRPPEQVLEILK”, the protein production is reported as “not failed”.
For “MKDYQKILVVVDPTTENQVALARAVTLASKSNAHVTVFLSIFDFSYEMTSILSSQEREAMRQGVIDQRVAWIQDLLAPYNHLGLNIDTQVIWHNRPFESIINHAIAGQYDLIVKGTHAHDKLKAVIFTPTDWHLMRKAPVPVLMVKDHDWPETGKILCAVNVATEDTDHQMLNGKIIEHAKDLAGKFAAEVHLVNGFPGTPVNLAIELPDFDAQTYNDTIRLQHEQRVQYLADAYGIDKQNCHVKEGLPEDVIPELAEQLDAELVILGTVGRTGFSAALIGNTAEHVIDSINCDLLAIKPDGYKSPLEEA”, the protein production was “not failed”.
With “MKEDPRIIKTLSKLQKAFVMLLKTYDAGDINVRQISDEAGVTRGAFYSHFSDKKEFVNFTINELVGSLFNSSLKDSVGFVDEVNHKNAHGTNVLSVSNFFDKVAADYQTYTIVLDTEKLPQFTEVLKERLNSEIKTFAEYYGKKVKHDGFPIEVLSSYYVNGLIGMIRMWLDEGMVYTSHYMANAAKKILGTKIQIDSQNIDLSDFFVDLEHHHHHH” the protein production was “not failed”.
In the case of “MKEDWKSTIQKRIVERNLNQSKKYESIMKSYNSLVEEKNNLLAIIASLTSENMYLLNNRKLNHSFESTMMTETNISRNEDIFLSNETKKGHNNNNNQNDYNNDNSLNYSRTNIITMKSPDSLSQNTITKKEFLEVIKEKGKNEELILLLKNSVNEKEKMLHILNKENNNLNNVICKREEELYEKKKDIFKLEELLNKKETQIKLYENNNKSLKTKIQLHDRKNQKYFRQYNILRFTYFKLLKQVGEMKVYNNNINQNYFSLRKEMLQKKEENEKLLNYLIHCKTSYKKELKKLYQEITNKQKKYILFKNNQFYVNLYLRKF”, the protein production is reported as “failed”.
